Data: PMC10693564 (Nature Communications, 2023)

Molecular target: T1, UBE1L (1-1012aa) (UniProt P41226 1-1012)
T1 construct: In the cryo-EM sample its active-site cysteine was disulfide-linked to Cys86 of UBE2L6; also called UBA7; not shown: GST, N-terminal, cleaved
T1 sequence (looked up): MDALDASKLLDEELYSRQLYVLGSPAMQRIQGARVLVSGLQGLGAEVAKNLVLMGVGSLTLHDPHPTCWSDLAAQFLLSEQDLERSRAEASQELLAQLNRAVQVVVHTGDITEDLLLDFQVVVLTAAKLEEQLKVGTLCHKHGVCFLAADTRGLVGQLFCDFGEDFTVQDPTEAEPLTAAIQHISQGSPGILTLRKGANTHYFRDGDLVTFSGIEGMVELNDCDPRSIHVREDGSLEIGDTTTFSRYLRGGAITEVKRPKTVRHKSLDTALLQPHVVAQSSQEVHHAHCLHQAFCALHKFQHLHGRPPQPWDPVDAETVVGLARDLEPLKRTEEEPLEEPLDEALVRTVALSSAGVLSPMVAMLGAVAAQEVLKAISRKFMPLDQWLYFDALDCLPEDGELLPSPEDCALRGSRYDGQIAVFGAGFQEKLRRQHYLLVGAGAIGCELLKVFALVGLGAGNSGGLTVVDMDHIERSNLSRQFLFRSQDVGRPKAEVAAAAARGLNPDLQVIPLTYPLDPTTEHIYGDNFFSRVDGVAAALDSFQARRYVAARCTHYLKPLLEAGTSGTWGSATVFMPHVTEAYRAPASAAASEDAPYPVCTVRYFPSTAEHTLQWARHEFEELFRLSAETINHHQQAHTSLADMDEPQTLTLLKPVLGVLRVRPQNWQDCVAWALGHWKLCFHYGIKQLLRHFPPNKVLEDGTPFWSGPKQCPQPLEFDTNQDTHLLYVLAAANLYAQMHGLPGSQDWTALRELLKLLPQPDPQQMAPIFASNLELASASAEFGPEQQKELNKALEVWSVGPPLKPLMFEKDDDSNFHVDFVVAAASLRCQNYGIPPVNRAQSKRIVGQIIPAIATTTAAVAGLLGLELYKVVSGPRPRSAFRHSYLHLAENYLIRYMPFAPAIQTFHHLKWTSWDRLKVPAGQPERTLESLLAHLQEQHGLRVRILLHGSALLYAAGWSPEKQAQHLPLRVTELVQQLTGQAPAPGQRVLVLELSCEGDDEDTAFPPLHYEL
Test: cryo-EM structure
Conditions: both partners purified

binding result: binds
B1: UBE2L6^C86only (enzyme)
chain: MMASMRVVKELEDLQKKPPPYLRNLSSDDANVLVWHALLLPDQPPYHLKAFNLRISFPPEYPFKPPMIKFTTKIYHPNVDENGQICLPIISSENWKPSTKTSQVLEALNVLVNRPNIREPLRMDLADLLTQNPELFRKNAEEFTLRFGVDRPS
notes: non-catalytic cysteines mutated to serine; also called UBE2L6(C98S/C102S); UbcH8; not shown: 6xHis, N-terminal, cleaved; GST, N-terminal, cleaved
